Experimental data as given in the supplement of paper PMC9233669.
Variants at the floor of the assay were thinned out.

Columns and labels:
biotinyl-Ile-oxazolone = experiment: self-aminoacylation, catalytic enhancement (BIO) (fold over background); higher = more active; k-Seq, kA / k0A0; sequences stand for … in GGGAAUGGAUCCACAUCUACGAAUUC…UUCACUGCAGACUUGACGAAGCUG
Method in brief: (§1)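 Mutagenized RNA pools (0.43 μM; 21-nt variable region) were treated with 2–1250 μM of each biotinyl-aminoacyl-oxazolone. Conditions were 50 μL HEPES/NaCl/KCl/MgCl2/CaCl2 buffer, 5% acetonitrile, pH 6.9–7.0, room temperature, 90 minutes. Catalytic enhancement, the median kA relative to the uncatalyzed rate, was derived from streptavidin capture, qPCR and Illumina sequencing.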

biotinyl-Val-oxazolone = experiment: self-aminoacylation, catalytic enhancement (BVO) (fold over background); higher = more active; k-Seq, kA / k0A0; sequences stand for … in GGGAAUGGAUCCACAUCUACGAAUUC…UUCACUGCAGACUUGACGAAGCUG
Method in brief: as §1

biotinyl-Leu-oxazolone = experiment: self-aminoacylation, catalytic enhancement (BLO) (fold over background); higher = more active; k-Seq, kA / k0A0; sequences stand for … in GGGAAUGGAUCCACAUCUACGAAUUC…UUCACUGCAGACUUGACGAAGCUG
Method in brief: as §1

biotinyl-Phe-oxazolone = experiment: self-aminoacylation, catalytic enhancement (BFO) (fold over background); higher = more active; k-Seq, kA / k0A0; sequences stand for … in GGGAAUGGAUCCACAUCUACGAAUUC…UUCACUGCAGACUUGACGAAGCUG
Method in brief: as §1

biotinyl-Trp-oxazolone = experiment: self-aminoacylation, catalytic enhancement (BWO) (fold over background); higher = more active; k-Seq, kA / k0A0; sequences stand for … in GGGAAUGGAUCCACAUCUACGAAUUC…UUCACUGCAGACUUGACGAAGCUG
Method in brief: as §1

biotinyl-Met-oxazolone = experiment: self-aminoacylation, catalytic enhancement (BMO) (fold over background); higher = more active; k-Seq, kA / k0A0; sequences stand for … in GGGAAUGGAUCCACAUCUACGAAUUC…UUCACUGCAGACUUGACGAAGCUG
Method in brief: as §1

Sequence	self-aminoacylation (biotinyl-Ile-oxazolone)	self-aminoacylation (biotinyl-Val-oxazolone)	self-aminoacylation (biotinyl-Leu-oxazolone)	self-aminoacylation (biotinyl-Phe-oxazolone)	self-aminoacylation (biotinyl-Trp-oxazolone)	self-aminoacylation (biotinyl-Met-oxazolone)
CCACUUCAAACAAUCUGUCUG [Fam1A.1 aminoacylation ribozyme variant]	0.723	0.641	0.642	2.99	1.78	0.511
CCACUUCAAACAGUCGGUCUG [Fam1A.1 aminoacylation ribozyme variant]	1.19	1.39	0.89	0.637	1.54	1.09
CCACUUCAAGCAAUCGGUCUG [Fam1A.1 aminoacylation ribozyme variant]	1.23	1.28	1.22	18.6	11.8	1.15
CCACUUGAAACAAUCGGUCUG [Fam1A.1 aminoacylation ribozyme variant]	1.15	1.18	1.03	0.824	0.785	1.19
CCAGACUACAAGCAAUCGGUC [Fam1B.1 aminoacylation ribozyme variant]	1.26	1.42	1.17	1.07	1.35	1.16
CCAGACUUCAAGCAAGCGGUC [Fam1B.1 aminoacylation ribozyme variant]	0.87	0.932	1.15	0.523	0.843	0.821
CCAGACUUCAAGCAAUCGCUC [Fam1B.1 aminoacylation ribozyme variant]	2.23	2.11	2.71	5.36	1.54	2.06
CCAGACUUCAAGCAAUGGGUC [Fam1B.1 aminoacylation ribozyme variant]	0.856	0.856	0.759	0.887	0.74	0.72
CCAGACUUCAAGCUAUCGGUC [Fam1B.1 aminoacylation ribozyme variant]	1.41	1.41	1.16	1.11	0.76	1.08
CCAGACUUCACGCAAUCGGUC [Fam1B.1 aminoacylation ribozyme variant]	1.64	1.76	1.6	4.39	1.65	1.79
CCAGACUUGAAGCAAUCGGUC [Fam1B.1 aminoacylation ribozyme variant]	1.07	1.12	1.16	0.942	1.07	1.08
CCAUACGUCAAGCAAUCGGUC [Fam1B.1 aminoacylation ribozyme variant]	1.04	1.12	1.34	0.88	1.16	1.03
CCAUACUUCAAGCAACCGGUC [Fam1B.1 aminoacylation ribozyme variant]	1.06	1	0.894	1.06	0.794	0.74
CCAUACUUCAAGCAAUCAGUC [Fam1B.1 aminoacylation ribozyme variant]	0.884	0.81	0.804	7.22	2.64	0.659
CCAUACUUCAAGCAAUCUGUC [Fam1B.1 aminoacylation ribozyme variant]	0.536	0.555	0.384	0.503	0.251	0.439
CCAUCCUUCAAGCAAUCGGUC [Fam1B.1 aminoacylation ribozyme variant]	1.13	1.19	1.3	16.4	9.38	1.15
CCCCACAUCAAGCAAUCGGUC [Fam1B.1 aminoacylation ribozyme variant]	1.67	1.5	1.63	3.1	2.47	1.22
CCCCACUUCAAGAAAUCGGUC [Fam1B.1 aminoacylation ribozyme variant]	1.36	1.42	1.81	11.6	9.76	1.17
CCCCACUUCAAGCAAACGGUC [Fam1B.1 aminoacylation ribozyme variant]	1.33	1.41	1.03	2.34	1.67	1.36
CCCCACUUCAAGCAACCGGUC [Fam1B.1 aminoacylation ribozyme variant]	1.99	2.15	2.05	3.09	2.18	1.82
CCCCACUUCAAGCAAGCGGUC [Fam1B.1 aminoacylation ribozyme variant]	2.15	2.38	2.61	9.34	5	2.33
CCCCACUUCAAGCAAUCAGUC [Fam1B.1 aminoacylation ribozyme variant]	0.981	1.14	1.13	19.8	6.51	0.987
CCCCACUUCAAGCAAUCGCUC [Fam1B.1 aminoacylation ribozyme variant]	2.08	2.55	2.99	8.76	4.28	2.93
